Results on two molecules are retold here after US20140087995A1 (published 2014).

Numbered stars: 1 amine (or outer) side, 2 acyl side, 3 side chain; on linkers, the order of the positions; unused ones are H or OH. Bridge positions count the residues as written; N and C are the ends. * marks the point of attachment. C20 diacid = O=C(O)CCCCCCCCCCCCCCCCCCC(=O)*; γGlu = O=C(O)[C@H](CCC(=O)[*:2])N[*:1]

The test has as its target T1, human calcitonin receptor (human, UniProt P30988 25-474).
T1 sequence (looked up): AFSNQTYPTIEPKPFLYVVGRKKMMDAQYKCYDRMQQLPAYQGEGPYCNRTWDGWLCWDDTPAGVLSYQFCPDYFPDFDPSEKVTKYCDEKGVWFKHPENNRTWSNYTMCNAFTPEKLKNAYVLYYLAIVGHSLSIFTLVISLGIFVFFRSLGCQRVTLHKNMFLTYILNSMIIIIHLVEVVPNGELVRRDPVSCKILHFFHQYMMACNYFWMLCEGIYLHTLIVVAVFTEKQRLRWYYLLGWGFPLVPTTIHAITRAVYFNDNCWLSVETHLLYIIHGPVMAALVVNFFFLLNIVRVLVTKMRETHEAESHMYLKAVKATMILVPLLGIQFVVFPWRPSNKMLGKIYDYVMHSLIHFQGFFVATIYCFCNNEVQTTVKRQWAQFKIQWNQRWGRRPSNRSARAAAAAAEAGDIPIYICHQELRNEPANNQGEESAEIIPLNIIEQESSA
Nature of the test: cell-based or functional assay.

B1: N^α1-[(4S)-4-carboxy-4-(19-carboxynonadecanoylamino)butanoyl]-[Glu14,Arg17,Pro21,Pro27,Pro37]-h-amylin (peptide)
peptide: {C20 diacid-γGlu}-KCNTATCATQRLAEFLRHSSPNFGAIPSSTNVGSNTP-NH2
modifications: disulfide 2-7
SMILES: CC[C@H](C)[C@H](NC(=O)[C@H](C)NC(=O)CNC(=O)[C@H](Cc1ccccc1)NC(=O)[C@H](CC(N)=O)NC(=O)[C@@H]1CCCN1C(=O)[C@H](CO)NC(=O)[C@H](CO)NC(=O)[C@H](Cc1c[nH]cn1)NC(=O)[C@H](CCCNC(=N)N)NC(=O)[C@H](CC(C)C)NC(=O)[C@H](Cc1ccccc1)NC(=O)[C@H](CCC(=O)O)NC(=O)[C@H](C)NC(=O)[C@H](CC(C)C)NC(=O)[C@H](CCCNC(=N)N)NC(=O)[C@H](CCC(N)=O)NC(=O)[C@@H](NC(=O)[C@H](C)NC(=O)[C@@H]1CSSC[C@H](NC(=O)[C@H](CCCCN)NC(=O)CC[C@H](NC(=O)CCCCCCCCCCCCCCCCCCC(=O)O)C(=O)O)C(=O)N[C@@H](CC(N)=O)C(=O)N[C@@H]([C@@H](C)O)C(=O)N[C@@H](C)C(=O)N[C@@H]([C@@H](C)O)C(=O)N1)[C@@H](C)O)C(=O)N1CCC[C@H]1C(=O)N[C@@H](CO)C(=O)N[C@@H](CO)C(=O)N[C@H](C(=O)N[C@@H](CC(N)=O)C(=O)N[C@H](C(=O)NCC(=O)N[C@@H](CO)C(=O)N[C@@H](CC(N)=O)C(=O)N[C@H](C(=O)N1CCC[C@H]1C(N)=O)[C@@H](C)O)C(C)C)[C@@H](C)O
notes: Synthetic acylated analogue of human amylin; also called compound 8
In the case of B1, the “hCTR funct. EC50 (CRE luciferase reporter, BHK cells)” value was 87 pM.

B2: N^α1-[(4S)-4-carboxy-4-[[(4S)-4-carboxy-4-(19-carboxynonadecanoylamino)butanoyl]amino]butanoyl]-[Glu14,Arg17,Pro21,Pro27,Pro37]-h-amylin (peptide)
peptide: {C20 diacid-γGlu-γGlu}-KCNTATCATQRLAEFLRHSSPNFGAIPSSTNVGSNTP-NH2
modifications: disulfide 2-7
SMILES: CC[C@H](C)[C@H](NC(=O)[C@H](C)NC(=O)CNC(=O)[C@H](Cc1ccccc1)NC(=O)[C@H](CC(N)=O)NC(=O)[C@@H]1CCCN1C(=O)[C@H](CO)NC(=O)[C@H](CO)NC(=O)[C@H](Cc1c[nH]cn1)NC(=O)[C@H](CCCNC(=N)N)NC(=O)[C@H](CC(C)C)NC(=O)[C@H](Cc1ccccc1)NC(=O)[C@H](CCC(=O)O)NC(=O)[C@H](C)NC(=O)[C@H](CC(C)C)NC(=O)[C@H](CCCNC(=N)N)NC(=O)[C@H](CCC(N)=O)NC(=O)[C@@H](NC(=O)[C@H](C)NC(=O)[C@@H]1CSSC[C@H](NC(=O)[C@H](CCCCN)NC(=O)CC[C@H](NC(=O)CC[C@H](NC(=O)CCCCCCCCCCCCCCCCCCC(=O)O)C(=O)O)C(=O)O)C(=O)N[C@@H](CC(N)=O)C(=O)N[C@@H]([C@@H](C)O)C(=O)N[C@@H](C)C(=O)N[C@@H]([C@@H](C)O)C(=O)N1)[C@@H](C)O)C(=O)N1CCC[C@H]1C(=O)N[C@@H](CO)C(=O)N[C@@H](CO)C(=O)N[C@H](C(=O)N[C@@H](CC(N)=O)C(=O)N[C@H](C(=O)NCC(=O)N[C@@H](CO)C(=O)N[C@@H](CC(N)=O)C(=O)N[C@H](C(=O)N1CCC[C@H]1C(N)=O)[C@@H](C)O)C(C)C)[C@@H](C)O
notes: Synthetic acylated analogue of human amylin; also called compound 14
In the case of B2, the “hCTR funct. EC50 (CRE luciferase reporter, BHK cells)” value was 238 pM.
